Common to all, as to test: single-molecule TIRF real-time association assay
The target of assay [1] is human cytoplasmic dynein-1 complex (human) (UniProt Q14204).
For assay [2] the target is unchanged. The source holds these as a separate data set.
The target is the same in assay [3]. The source holds these as a separate data set.

Read-outs that look alike come from different tables or passages of the source.

In assay [1], “BicD2 (amino acids 1–598) with N-terminal HaloTag (from UniProt Q8TD16 1-598) (domain or fragment)” showed an off-rate (koff) of 0.137 s⁻¹ and a percent of complexes long-lived (>80 s) of 37%. In assay [2], this substance returned a fraction of dynein molecules bound by the end of data acquisition of less than 25%, a koff of 0.038 s⁻¹, a percent of complexes long-lived (>80 s) of 6% and a percent of complexes medium-lived (20–80 s) of 22%. The same substance registered a percent of complexes short-lived (<20 s) in assay [2] of 72%.
For the substance “NINL (amino acids 1–702) with N-terminal HaloTag (from UniProt Q9Y2I6 1-702) (domain or fragment)”, the kon in assay [3] amounted to 7.97e+06 M⁻¹ s⁻¹. Moreover, in assay [1], the dwell time, major peak turned out to be 5 s; the koff was found to be 0.0627 s⁻¹; the on-rate constant (kon) was determined as 9.21e+06 M⁻¹ s⁻¹; the percent of binding events short-lived (<20 s) was 32%. In assay [1], this substance registered a percent of complexes long-lived (>80 s) of 16%, a percent of complexes medium-lived (20–80 s) of 37% and a percent of complexes short-lived (<20 s) of 47%. The substance also registered a fraction of dynein molecules bound by the end of data acquisition in assay [2] of 60%.
In the case of “dynactin complex purified from HEK293T cells stably expressing p62-Halo-3xFLAG (from UniProt Q9UJW0;Q14203;P61163)”, in assay [1], the dwell time, major peak is 5 s; the percent of binding events short-lived (<20 s) came out at 30%; the percent of complexes long-lived (>80 s) came out at 9%; the percent of complexes medium-lived (20–80 s) stood at 22%. In assay [1], this substance yielded a percent of complexes short-lived (<20 s) of 69%.
